Changes are numbered by the printed parent chain.
Experiments:
Experiment in all cases: MST
Pcf1_KER = target: T1, Pcf1_KER (Schizosaccharomyces pombe, UniProt Q1MTN9 56-170)
T1 sequence: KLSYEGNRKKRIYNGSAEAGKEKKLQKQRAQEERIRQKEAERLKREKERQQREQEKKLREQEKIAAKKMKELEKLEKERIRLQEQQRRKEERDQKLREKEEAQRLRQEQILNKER

Pcf1_WHD = target: T2, Pcf1_WHD (Schizosaccharomyces pombe, UniProt Q1MTN9 471-544)
T2 sequence: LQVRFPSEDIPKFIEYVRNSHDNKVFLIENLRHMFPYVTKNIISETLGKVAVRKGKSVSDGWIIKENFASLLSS

Pcf1-KER*;Pcf2;Pcf3 = target: T3, Pcf1-KER*;Pcf2;Pcf3 (Schizosaccharomyces …, UniProt Q1MTN9;O13985;Q9Y825 1-544;1-512;1-408, R147E;K150E;K154E;R161E;K168E||)
T3 sequence 1: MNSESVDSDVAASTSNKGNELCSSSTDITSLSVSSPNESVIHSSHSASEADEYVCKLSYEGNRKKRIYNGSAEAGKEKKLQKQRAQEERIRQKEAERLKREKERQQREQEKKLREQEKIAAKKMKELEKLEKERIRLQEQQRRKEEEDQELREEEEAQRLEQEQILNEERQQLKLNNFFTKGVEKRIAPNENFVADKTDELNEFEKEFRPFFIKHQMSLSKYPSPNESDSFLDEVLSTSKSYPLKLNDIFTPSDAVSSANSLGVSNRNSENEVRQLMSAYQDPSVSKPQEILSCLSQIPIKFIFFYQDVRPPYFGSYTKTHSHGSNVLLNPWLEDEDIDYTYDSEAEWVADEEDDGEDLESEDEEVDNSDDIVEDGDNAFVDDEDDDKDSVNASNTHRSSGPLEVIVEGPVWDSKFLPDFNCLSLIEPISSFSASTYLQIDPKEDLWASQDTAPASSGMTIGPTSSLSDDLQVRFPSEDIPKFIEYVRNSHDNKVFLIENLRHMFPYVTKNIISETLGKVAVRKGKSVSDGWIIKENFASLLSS
T3 sequence 2: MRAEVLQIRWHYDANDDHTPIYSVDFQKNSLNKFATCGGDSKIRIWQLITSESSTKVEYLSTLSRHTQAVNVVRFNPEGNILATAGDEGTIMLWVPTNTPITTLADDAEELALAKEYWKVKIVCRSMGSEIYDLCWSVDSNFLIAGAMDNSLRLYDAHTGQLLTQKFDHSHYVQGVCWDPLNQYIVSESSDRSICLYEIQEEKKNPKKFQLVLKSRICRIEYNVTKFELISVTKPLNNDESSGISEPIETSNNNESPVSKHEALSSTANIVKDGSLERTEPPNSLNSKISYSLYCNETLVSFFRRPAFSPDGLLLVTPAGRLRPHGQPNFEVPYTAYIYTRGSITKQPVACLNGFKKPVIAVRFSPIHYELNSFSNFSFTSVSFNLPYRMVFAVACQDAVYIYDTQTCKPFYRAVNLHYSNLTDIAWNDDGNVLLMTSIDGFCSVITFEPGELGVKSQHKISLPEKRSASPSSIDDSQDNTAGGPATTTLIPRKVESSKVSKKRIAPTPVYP
T3 sequence 3: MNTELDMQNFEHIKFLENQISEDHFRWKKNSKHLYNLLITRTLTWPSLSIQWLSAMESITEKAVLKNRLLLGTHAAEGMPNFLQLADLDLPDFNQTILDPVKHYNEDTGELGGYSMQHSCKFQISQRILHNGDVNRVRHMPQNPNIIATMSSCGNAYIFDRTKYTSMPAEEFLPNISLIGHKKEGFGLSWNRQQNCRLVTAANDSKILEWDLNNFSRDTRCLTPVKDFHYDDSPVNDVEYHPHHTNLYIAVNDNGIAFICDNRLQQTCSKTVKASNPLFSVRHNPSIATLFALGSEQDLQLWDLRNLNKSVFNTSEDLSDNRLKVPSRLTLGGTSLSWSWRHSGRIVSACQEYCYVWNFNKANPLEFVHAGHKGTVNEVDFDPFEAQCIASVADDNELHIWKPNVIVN

Pcf1_KER* = target: T4, Pcf1_KER* (Schizosaccharomyces pombe, UniProt Q1MTN9 56-170, R147E;K150E;K154E;R161E;K168E)
T4 sequence: T1 sequence with R92E, K95E, K99E, R106E, K113E

B1: 40 bp dsDNA, Alexa488 (dsDNA)
DNA 1: ATCAATATCCACCTGCAGATACTACCAAAAGTGTATTTGG
DNA 2: CCAAATACACTTTTGGTAGTATCTGCAGGTGGATATTGAT
apparent K (half saturation) (Pcf1_KER): 1100 ± 200 nM
binding result (Pcf1_WHD): no binding
apparent K (half saturation) (Pcf1-KER*;Pcf2;Pcf3): 2800 ± 400 nM
apparent K (half saturation) (Pcf1_KER*): 12.2 ± 0.7 µM
